{
  "source": "paper PMC9165289",
  "about": "“Theranostic PSMA ligands with optimized backbones for intraoperative multimodal imaging and photodynamic therapy of prostate cancer” (European Journal of Nuclear Medicine and Molecular Imaging, 2022)",
  "key": {"[1]": {"molecular_target": "T1, PSMA (Homo sapiens, UniProt Q04609)", "T1 construct": "expressed in transfected cells; host or cells: LS174T colon carcinoma cells (LS174T-PSMA)", "T1 sequence (Q04609 whole entry)": "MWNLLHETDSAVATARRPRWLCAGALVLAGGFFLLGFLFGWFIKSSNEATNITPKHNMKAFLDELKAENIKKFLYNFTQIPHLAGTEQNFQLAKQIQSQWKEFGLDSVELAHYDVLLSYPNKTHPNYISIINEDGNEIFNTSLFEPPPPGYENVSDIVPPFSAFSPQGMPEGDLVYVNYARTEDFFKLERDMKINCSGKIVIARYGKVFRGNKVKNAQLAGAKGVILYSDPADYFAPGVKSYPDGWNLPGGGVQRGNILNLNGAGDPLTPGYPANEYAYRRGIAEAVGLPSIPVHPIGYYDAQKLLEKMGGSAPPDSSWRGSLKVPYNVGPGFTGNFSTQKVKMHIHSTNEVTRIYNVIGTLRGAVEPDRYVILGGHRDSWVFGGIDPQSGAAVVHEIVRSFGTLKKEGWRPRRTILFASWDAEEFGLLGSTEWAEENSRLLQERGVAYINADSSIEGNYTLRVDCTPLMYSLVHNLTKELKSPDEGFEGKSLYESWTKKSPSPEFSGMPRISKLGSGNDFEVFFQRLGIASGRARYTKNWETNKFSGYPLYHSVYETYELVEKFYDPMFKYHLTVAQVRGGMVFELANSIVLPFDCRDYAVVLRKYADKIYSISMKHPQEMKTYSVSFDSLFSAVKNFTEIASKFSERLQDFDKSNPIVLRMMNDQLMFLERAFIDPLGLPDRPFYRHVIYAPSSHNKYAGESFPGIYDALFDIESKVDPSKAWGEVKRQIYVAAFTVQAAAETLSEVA", "assay": "competitive binding assay using LS174T-PSMA cells", "source_text": "Fig. 3 In vitro characterization of [^111In]In-DOTA(GA)-IRDye700DX-PSMA ligands varying in their backbone composition. a Labeling efficiency of [^111In]In-DOTA-PSMA-N01, -N02, -N03, [^111In]In-DOTAGA-PSMA-N064 and -N064inc at a specific activity of either 10 MBq/µg or 30 MBq/µg (n = 2). IC50 values of ligands as determined in competitive binding assays using LS174T-PSMA cells. b Binding and internalization of [^111In]In-DOTA-PSMA-N01, -N02, -N03, [^111In]In-DOTAGA-PSMA-N064 and -N064inc in LS174T PSMA-positive cells. Membrane binding and internalization are corrected for non-specific binding and accumulation, as determined by co-incubation with an excess of 2-PMPA (50 µg). [^111In]In-DOTA-PSMA-617 was added as a positive control. c PSMA-targeted PDT efficacy of ligands in vitro. Cell viability of LS174T-PSMA (PSMA +) and LS174T wildtype (PSMA-) cells following incubation with 30 nM of PSMA-N01, -N02, -N03, -N064, and -N064inc, after either a 100 J/cm^2 (450 mW/cm^2) radiant exposure or no light exposure (dark)."}, "[2]": {"assay": "PSMA-N064 blocking experiment, ex vivo biodistribution", "assay_type": "in vivo, BALB/c nude mice", "settings": "male, BALB/c nude, mouse, in vivo, total radioactivity, 2 h p.i., n=5", "method": "All animal experiments were approved by the institutional Animal Welfare Committee of the Radboud University Medical Center and were conducted in accordance to the guidelines of the Revised Dutch Act on Animal Experimentation. Animal experiments were performed in 8–10 weeks old male BALB/c nude mice (Janvier). The mice were housed in individually ventilated cages (Blue line IVC, 3–5 mice per cage), under standard non-sterile conditions with cage enrichment present. There was free access to chlorophyll-free animal chow (Sniff Voer) and water. Mice were subcutaneously inoculated with 3.0 × 10^6 LS174T-PSMA cells in the right flank and 1.5 × 10^6 LS174T WT cells in the left flank (diluted in 200-µl RPMI 1640 medium). When xenografts were approximately 0.5 cm^3 (10–14 days after injection), mice were block-randomized into groups based on tumor size. The researchers were not blinded for the experimental groups.\nFive mice per group were intravenously injected with either 0.1 nmol PSMA-N064, 0.3 nmol PSMA-N064, 0.1 nmol PSMA-N064 + 10 nmol unlabeled PSMA-617 (100x excess) or PSMA-617. Ligands were labeled with 10 MBq ^111In in PBS+0.5% (w/v) BSA. For the ex vivo biodistribution four groups (one for each experimental condition) of five mice were included. Two hours p.i., all mice from all groups were euthanized by CO2/O2-asphyxiation and relevant tissues were dissected, weighed and measured for radioactivity in a gamma-counter (2480 WIZARD^2 Automatic Gamma Counter, PerkinElmer)."}},
  "note": "Values joined by “and” are separate entries in the source; they are usually repeats but may differ in a detail not shown here. Identical values can stand only once. Like-named read-outs stand apart in the source and are kept apart here.",
  "data": [
    {"smiles": "C[Si](C)(CCC[N+](CCCS(=O)(=O)[O-])(CCCS(=O)(=O)O)CCCS(=O)(=O)O)O[Si]1(O[Si](C)(C)CCC[N+](CCCS(=O)(=O)[O-])(CCCS(=O)(=O)O)CCCS(=O)(=O)O)n2c3c4ccccc4c2N=C2N=C(N=c4c5c(OCCCOC(=O)NCCCCCC(=O)NCCCC[C@H](NC(=O)CN6CCN(CC(=O)O)CCN(CC(=O)O)CCN(CC(=O)O)CC6)C(=O)NCCCC[C@H](NC(=O)[C@H](CCC(=O)O)NC(=O)c6ccccc6)C(=O)NCc6ccc(C(=O)N[C@@H](Cc7ccc8ccccc8c7)C(=O)NCCCC[C@H](NC(=O)N[C@@H](CCC(=O)O)C(=O)O)C(=O)O)cc6)cccc5c(n41)=NC1=NC(=N3)c3ccccc31)c1ccccc12", "note": "[PSMA-N01]", "values": [
      {"measurement": "IC50", "setting": "[1]", "value": "44.8 nM and < 50 nM"}
    ]},
    {"smiles": "C[Si](C)(CCC[N+](CCCS(=O)(=O)[O-])(CCCS(=O)(=O)O)CCCS(=O)(=O)O)O[Si]1(O[Si](C)(C)CCC[N+](CCCS(=O)(=O)[O-])(CCCS(=O)(=O)O)CCCS(=O)(=O)O)n2c3c4ccccc4c2N=C2N=C(N=c4c5c(OCCCOC(=O)NCCCCCC(=O)NCCCC[C@H](NC(=O)CN6CCN(CC(=O)O)CCN(CC(=O)O)CCN(CC(=O)O)CC6)C(=O)NCCCC[C@H](NC(=O)[C@H](CCC(=O)O)NC(=O)c6ccccc6)C(=O)NC[C@H]6CC[C@H](C(=O)N[C@@H](Cc7ccc8ccccc8c7)C(=O)NCCCC[C@H](NC(=O)N[C@@H](CCC(=O)O)C(=O)O)C(=O)O)CC6)cccc5c(n41)=NC1=NC(=N3)c3ccccc31)c1ccccc12", "note": "[PSMA-N03]", "values": [
      {"measurement": "IC50", "setting": "[1]", "value": 41.8, "unit": "nM"},
      {"measurement": "IC50", "setting": "[1]; listed as -N03", "value": "< 50", "unit": "nM"}
    ]},
    {"smiles": "C[Si](C)(CCC[N+](CCCS(=O)(=O)[O-])(CCCS(=O)(=O)O)CCCS(=O)(=O)O)O[Si]1(O[Si](C)(C)CCC[N+](CCCS(=O)(=O)[O-])(CCCS(=O)(=O)O)CCCS(=O)(=O)O)n2c3c4ccccc4c2N=C2N=C(N=c4c5c(OCCCOC(=O)NCCCCCC(=O)NCCCC[C@H](NC(=O)CCC(C(=O)O)N6CCN(CC(=O)O)CCN(CC(=O)O)CCN(CC(=O)O)CC6)C(=O)N[C@@H](Cc6ccccc6)C(=O)N[C@@H](CCC(=O)O)C(=O)N[C@@H](CCC(=O)O)C(=O)NCCCCCC(=O)NCCCC[C@H](NC(=O)N[C@@H](CCC(=O)O)C(=O)O)C(=O)O)cccc5c(n41)=NC1=NC(=N3)c3ccccc31)c1ccccc12", "note": "(stereo partly drawn) [PSMA-N064]", "values": [
      {"measurement": "tissue uptake at 2 h", "setting": "[2]; iv, 0.1 nmol, 0.1 nmol, 10 MBq, i.v., read-out: Biodistribution Blood", "value": "0.2 ± 0.2", "unit": "%ID/g"},
      {"measurement": "tissue uptake at 2 h", "setting": "[2]; iv, 0.1 nmol, 0.1 nmol, 10 MBq, i.v., read-out: Biodistribution Bone", "value": "0.7 ± 0.2", "unit": "%ID/g"},
      {"measurement": "tissue uptake at 2 h", "setting": "[2]; iv, 0.1 nmol, 0.1 nmol, 10 MBq, i.v., read-out: Biodistribution Kidney", "value": "82.9 ± 7.8", "unit": "%ID/g"},
      {"measurement": "tissue uptake at 2 h", "setting": "[2]; iv, 0.1 nmol, 0.1 nmol, 10 MBq, i.v., read-out: Biodistribution Liver", "value": "0.8 ± 0.1", "unit": "%ID/g"},
      {"measurement": "tissue uptake at 2 h", "setting": "[2]; iv, 0.1 nmol, 0.1 nmol, 10 MBq, i.v., read-out: Biodistribution Muscle", "value": "0.4 ± 0.4", "unit": "%ID/g"},
      {"measurement": "tissue uptake at 2 h", "setting": "[2]; iv, 0.1 nmol, 0.1 nmol, 10 MBq, i.v., read-out: Biodistribution Prostate", "value": "0.5 ± 0.2", "unit": "%ID/g"},
      {"measurement": "tissue uptake at 2 h", "setting": "[2]; iv, 0.1 nmol, 0.1 nmol, 10 MBq, i.v., read-out: Biodistribution Salivary glands", "value": "0.6 ± 0.1", "unit": "%ID/g"},
      {"measurement": "tissue uptake at 2 h", "setting": "[2]; iv, 0.1 nmol, 0.1 nmol, 10 MBq, i.v., read-out: Biodistribution Spleen", "value": "1.6 ± 0.4", "unit": "%ID/g"},
      {"measurement": "tissue uptake at 2 h", "setting": "[2]; iv, 0.1 nmol, 0.1 nmol, 10 MBq, i.v., read-out: Biodistribution Tumor+ LS174T-PSMA", "value": "12 ± 2", "unit": "%ID/g"},
      {"measurement": "tissue uptake at 2 h", "setting": "[2]; iv, 0.1 nmol, 0.1 nmol, 10 MBq, i.v., read-out: Biodistribution Tumor- LS174T", "value": "0.4 ± 0.1", "unit": "%ID/g"},
      {"measurement": "tissue uptake at 2 h", "setting": "[2]; iv, 0.3 nmol, 0.3 nmol, 10 MBq, i.v., read-out: Biodistribution Blood", "value": "0.4 ± 0.3", "unit": "%ID/g"},
      {"measurement": "tissue uptake at 2 h", "setting": "[2]; iv, 0.3 nmol, 0.3 nmol, 10 MBq, i.v., read-out: Biodistribution Bone", "value": "0.8 ± 0.1", "unit": "%ID/g"},
      {"measurement": "tissue uptake at 2 h", "setting": "[2]; iv, 0.3 nmol, 0.3 nmol, 10 MBq, i.v., read-out: Biodistribution Kidney", "value": "64.4 ± 9.7", "unit": "%ID/g"},
      {"measurement": "tissue uptake at 2 h", "setting": "[2]; iv, 0.3 nmol, 0.3 nmol, 10 MBq, i.v., read-out: Biodistribution Liver", "value": "1 ± 0.2", "unit": "%ID/g"},
      {"measurement": "tissue uptake at 2 h", "setting": "[2]; iv, 0.3 nmol, 0.3 nmol, 10 MBq, i.v., read-out: Biodistribution Muscle", "value": "0.5 ± 0.3", "unit": "%ID/g"},
      {"measurement": "tissue uptake at 2 h", "setting": "[2]; iv, 0.3 nmol, 0.3 nmol, 10 MBq, i.v., read-out: Biodistribution Prostate", "value": "0.6 ± 0.2", "unit": "%ID/g"},
      {"measurement": "tissue uptake at 2 h", "setting": "[2]; iv, 0.3 nmol, 0.3 nmol, 10 MBq, i.v., read-out: Biodistribution Salivary glands", "value": "0.6 ± 0.2", "unit": "%ID/g"},
      {"measurement": "tissue uptake at 2 h", "setting": "[2]; iv, 0.3 nmol, 0.3 nmol, 10 MBq, i.v., read-out: Biodistribution Spleen", "value": "1.9 ± 0.5", "unit": "%ID/g"},
      {"measurement": "tissue uptake at 2 h", "setting": "[2]; iv, 0.3 nmol, 0.3 nmol, 10 MBq, i.v., read-out: Biodistribution Tumor+ LS174T-PSMA", "value": "12.2 ± 1.1", "unit": "%ID/g"},
      {"measurement": "tissue uptake at 2 h", "setting": "[2]; iv, 0.3 nmol, 0.3 nmol, 10 MBq, i.v., read-out: Biodistribution Tumor- LS174T", "value": "0.5 ± 0.1", "unit": "%ID/g"},
      {"measurement": "tissue uptake at 2 h", "setting": "[2]; 0.1 nmol + 10 nmol unlabeled PSMA-617 (block, 100x excess), read-out: Biodistribution Blood", "value": "0.2 ± 0.1", "unit": "%ID/g"},
      {"measurement": "tissue uptake at 2 h", "setting": "[2]; 0.1 nmol + 10 nmol unlabeled PSMA-617 (block, 100x excess), read-out: Biodistribution Bone", "value": "0.4 ± 0.1", "unit": "%ID/g"},
      {"measurement": "tissue uptake at 2 h", "setting": "[2]; 0.1 nmol + 10 nmol unlabeled PSMA-617 (block, 100x excess), read-out: Biodistribution Kidney", "value": "39.5 ± 5", "unit": "%ID/g"},
      {"measurement": "tissue uptake at 2 h", "setting": "[2]; 0.1 nmol + 10 nmol unlabeled PSMA-617 (block, 100x excess), read-out: Biodistribution Liver", "value": "0.7 ± 0.2", "unit": "%ID/g"},
      {"measurement": "tissue uptake at 2 h", "setting": "[2]; 0.1 nmol + 10 nmol unlabeled PSMA-617 (block, 100x excess), read-out: Biodistribution Muscle", "value": "0.1 ± 0.1", "unit": "%ID/g"},
      {"measurement": "tissue uptake at 2 h", "setting": "[2]; 0.1 nmol + 10 nmol unlabeled PSMA-617 (block, 100x excess), read-out: Biodistribution Prostate", "value": "0.2 ± 0.1", "unit": "%ID/g"},
      {"measurement": "tissue uptake at 2 h", "setting": "[2]; 0.1 nmol + 10 nmol unlabeled PSMA-617 (block, 100x excess), read-out: Biodistribution Salivary glands", "value": "0.4 ± 0.1", "unit": "%ID/g"},
      {"measurement": "tissue uptake at 2 h", "setting": "[2]; 0.1 nmol + 10 nmol unlabeled PSMA-617 (block, 100x excess), read-out: Biodistribution Spleen", "value": "0.5 ± 0.1", "unit": "%ID/g"},
      {"measurement": "tissue uptake at 2 h", "setting": "[2]; 0.1 nmol + 10 nmol unlabeled PSMA-617 (block, 100x excess), read-out: Biodistribution Tumor+ LS174T-PSMA", "value": "1 ± 0.1", "unit": "%ID/g"},
      {"measurement": "tissue uptake at 2 h", "setting": "[2]; 0.1 nmol + 10 nmol unlabeled PSMA-617 (block, 100x excess), read-out: Biodistribution Tumor- LS174T", "value": "0.4 ± 0.2", "unit": "%ID/g"}
    ]}
  ]
}
